Laboratory results published in patent US7943358B2, “Polymerase enhancing factor (PEF) extracts, PEF protein complexes, isolated PEF protein, and methods for purifying and identifying” (Agilent Technologies, Inc., priority 1997, dated 2011).

Columns and labels:
Assay type in all cases: biochemical
[1] = Reverse phase HPLC analysis of dUTP conversion; conditions: 72° C.
Experimental: (§1) The similarity of P45 to dCTP deaminases prompted us to test whether dCTP or other nucleotide triphosphates were substrates of PEF/P45. PEF was incubated with dCTP or dUTP and the reaction products were separated by reverse phase HPLC. Reaction mixtures (50 μl) containing 1× cloned Pfu polymerase buffer, 10 mM dCTP or dUTP, and 700 ng PEF (or 5 μl of cloned p45 (˜100 ng) or nothing (neg. control)) were incubated at 72° C. for 1 hour. The samples were injected on a […] Waters Delta-pak C-18 column (300 angstrom/15 μm), equilibrated in 50 mM triethylammonium acetate, pH (7.0) (A). Products were eluted with acetonitrile (B) at 2 ml/min. using the following gradient: 0% B for 5 minutes, 0-10% B over 20 minutes. Absorbence of the eluate was monitored with a photodiode array detector, and peak areas were integrated at 260 nm.
In a separate Western assay, samples from Thermus thermophilis were run out on an SDS-PAGE gel and probed with the rP45 antisera. […] The PEF as dUTPase activity in these samples was further confirmed by a dUTP conversion assay employing reverse phase HPLC.

[2] = PPi detection with dATP in place of dUTP; conditions: 1 hour at 72° C.
Experimental: […] The presence of PPi in the reaction mixture was then quantified using Sigma's Enzymatic Determination of Pyrophosphate kit (Sigma Product No. P7275). The kit utilizes a coupled enzyme system whereby two moles of NADH are oxidized to NAD^+ for each mole of PPi present in the reaction mixture. The oxidation of NADH is monitored spectrophotometrically at 340 nm. […] The reactions that contained 1800 ng of PEF produced twice as much PPi as those that contained 900 ng of PEF.

[3] = PPi production from dUTP (dUTPase activity), Sigma Enzymatic Determination of Pyrophosphate kit
Experimental: In experiments to investigate whether PPi is formed during the reaction, 900 or 1800 ng of PEF was incubated with 10 mM dUTP in 1× cloned Pfu polymerase buffer for 1 hour at 72° C. The presence of PPi in the reaction mixture was then quantified using Sigma's Enzymatic Determination of Pyrophosphate kit (Sigma Product No. P7275). The kit utilizes a coupled enzyme system whereby two moles of NADH are oxidized to NAD^+ for each mole of PPi present in the reaction mixture. The oxidation of NADH is monitored spectrophotometrically at 340 nm. […] The reactions that contained 1800 ng of PEF produced twice as much PPi as those that contained 900 ng of PEF.
The temperature optimum (Topt) for the generation of PPi from dUTP was measured by incubating mixtures of dUTP and native PEF at temperatures ranging from 73° C. to 99° C. PPi production by native PEF increased steadily over this temperature range and was highest at 99° C. […]
The enzyme activity of three different preparations of S200-purified native PEF was measured at 85° C. Protein concentrations were determined by both Bradford and by amino acid analysis. Shown below is a summary of the enzyme activity and specific activity (protein concentration determined by Bradford or AAA as indicated) of S200-purified native PEF. […]

[4] = Reverse phase HPLC analysis, reactivity with other nucleotides
Experimental: as §1
In addition to dUTP, dCTP was also found to serve as a substrate for PEF (FIG. 17). The product of the PEF+dCTP reaction appeared to be dCMP, based upon its retention time and absorbence maxima. Although PEF utilizes dCTP, dUTP is the preferred substrate of PEF/P45. In the example shown, only 16.6% of the dCTP was converted in 1 hour under the same conditions which converted 100% dUTP (FIG. 17, panel B). […] No reactivity with PEF was detected for the following nucleotides: dGTP, dATP, dTTP, dCMP, dUMP, and rUTP under the conditions used.

[5] = tested on: gapped-duplex calf thymus DNA; experiment: DNA polymerase activity, gapped-duplex calf thymus DNA assay
Experimental: Initially and as a control to confirm the activity of the DNA polymerase used, gapped-duplex calf thymus DNA (Pharmacia) assays were performed. The polymerase cocktail contained 50 mM Tris-HCl, pH 8.0, 5 mM MgCl2, 1 mM DTT, 50 μg/m BSA, 4% glycerol, 200 μM each dNTP, [^3H]TTP (0.5 mCi·μmole final concentration), and 250 μg/ml of activated calf thymus DNA (Pharmacia). Samples containing Pfu DNA polymerase or P. furiosus PEF were serially diluted in Pfu DNA polymerase storage buffer (50 mM Tris-HCl, pH 8.2, 0.1% NP-40, 0.1% Tween-20, 0.1 mM EDTA, 1 mM DTT, 50% glycerol) and then 1 μl of each dilution was added to 10 μl aliquots of polymerase cocktail. Polymerization reactions were conducted in triplicate for 30 minutes at 72° C. The extension reactions were quenched on ice, and then 5 μl aliquots were spotted immediately onto DE81 filters (Whatman). Unincorporated [^3H]TTP was removed by 6 washes with 2×SCC (0.3M NaCl, 30 mM sodium citrate, pH 7.0), followed by one wash with 100% ethanol. Incorporated radioactivity was measured by scintillation counting. The assay was calibrated by counting a known amount of [^3H]TTP on DE-81 filters, omitting the wash steps. One unit of polymerase activity is defined as the amount of enzyme which catalyzes the incorporation of 10 nmoles of total dNTP into polymeric form (binds to DE-81 paper) in 30 minutes at 72° C. […]

B1: PEF: polymerase enhancing factor complex purified from Pyrococcus furiosus; predominant components P50 and P45 (protein)
chain 1: MLHHVKLIYATKSRKLVGKKIVXXXPGSIAALDVKACEGLIRHGAEVHAVMSEAATKIIHPYAWNLPTGNPVITEITGFIEHVELAGEHENKADLILVCPATANTISKIACGIDDTPVTTVVTTAFPHIPIMIAPAMHETMYRHPIVRENIERLKKLGVEFIGPRIEEGRAKVASIDEIVYRVIKKLHKKTLEGKRVLVTAGATREYIDPIRFITNASSGKMGVALAEEADFRGAVTLIRTKGSVKAFRIRKIKLKVETVEEMLSAIENELRSKKYDVVIMAAAVSDFRPKIKAEGKIKSGRSITIELVPXNPKIIDRIKEIQPNVFLVGFKAETSKEKLIEEGKRQIERAKADLVVGNTLEAFGSEENQVVLIGRDFTKELPKMKKRELAERIWDEIEKXLS
chain 2: MLLPDWKIRKEILIEPFSEESLQPAGYDLRVGREAFVKGKLIDVEKEGKVVIPPREYALILTLERIKLPDDVMGDMKIRSSLAREGVIGSFAWVDPGWDGNLTLMLYNASNEPVELRYGERFVQIAFIRLEGPARNPYRGNYQGSTRLAFSKRKKL
modifications: not fully specified; X: residue not identified in the source
notes: polymerase enhancing factor complex purified from Pyrococcus furiosus; predominant components P50 and P45
[1]; 10 mM dUTP, one hour
  dUTP peak after incubation: 0.1 % total peak area
  new peak eluting at 4.400 minutes (dUMP): 98 % total peak area
[1]; 1 hour, 700 ng PEF
  dUTP converted: 100%
[2]
  PPi detected with dATP in place of dUTP: No PPi was detected
[3]
  PPi production from dUTP (in words): clearly established
[3]; tested from 73° C. to 99° C.
  temperature optimum (Topt) for the generation of PPi from dUTP: > 99 °C
[4]
  reactivity with dGTP, dATP, dTTP, dCMP, dUMP, rUTP: No reactivity
[5]
  DNA polymerase activity (in words): no significant DNA polymerase activity
